# Patent publication US20170051059A1
# pKd: −log10 of the molar value.
# Target: human FcRn (human) (UniProt P55899)
# Experiment: SPR (Biacore), pH 7.1; antibody captured on biot-IZ-hCD40L, soluble receptor as analyte
# UniProt P55899, sequence (P55899 24-297 limits assumed, chain 1 of 2): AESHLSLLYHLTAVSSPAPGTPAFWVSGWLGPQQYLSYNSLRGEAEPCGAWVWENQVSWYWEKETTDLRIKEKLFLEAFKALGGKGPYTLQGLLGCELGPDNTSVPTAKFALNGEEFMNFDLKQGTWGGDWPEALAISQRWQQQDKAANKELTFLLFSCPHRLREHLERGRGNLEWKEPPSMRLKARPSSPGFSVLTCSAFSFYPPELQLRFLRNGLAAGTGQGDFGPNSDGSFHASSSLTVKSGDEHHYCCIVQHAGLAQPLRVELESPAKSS
# UniProt P55899, sequence (chain, as listed by the source limits assumed, chain 2 of 2): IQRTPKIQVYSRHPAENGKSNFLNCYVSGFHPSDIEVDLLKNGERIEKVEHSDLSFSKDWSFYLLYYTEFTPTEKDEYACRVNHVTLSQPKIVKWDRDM
substance,measurement,value
5c8-IgG1 (antibody),pKd,< 5.30
